# Key:
# [1] = system: CN(C(=S)Cn1nc2c(c1C(F)(F)F)CCC2)c1ccccc1; conditions: Homo sapiens; dose 10.0 nM
# [2] = system: CN(C(=S)Cn1nc2c(c1C(F)(F)F)CCC2)c1ccccc1; conditions: Homo sapiens; dose 30.0 nM
# Description: Inhibition of human DNA polymerase theta assessed as substrate Vmax using dNTP as substrate at 30 nM
# [3] = system: CN(C(=S)Cn1nc2c(c1C(F)(F)F)CCC2)c1ccccc1; conditions: Homo sapiens; dose 40.0 nM
# [4] = system: CN(C(=S)Cn1nc2c(c1C(F)(F)F)CCC2)c1ccccc1; conditions: Homo sapiens; dose 2.5 nM
# Description: Inhibition of human DNA polymerase theta assessed as substrate Km using dNTP as substrate at 2.5 nM
# [5] = system: CN(C(=S)Cn1nc2c(c1C(F)(F)F)CCC2)c1ccccc1; conditions: Homo sapiens; dose 20.0 nM
# [6] = system: CN(C(=S)Cn1nc2c(c1C(F)(F)F)CCC2)c1ccccc1; conditions: Homo sapiens; dose 30.0 nM; remark: listed apart in the source
# Description: Inhibition of human DNA polymerase theta assessed as substrate Km using dNTP as substrate at 30 nM
# [7] = system: CN(C(=S)Cn1nc2c(c1C(F)(F)F)CCC2)c1ccccc1; conditions: Homo sapiens; dose 10.0 nM; remark: listed apart in the source
# [8] = system: CN(C(=S)Cn1nc2c(c1C(F)(F)F)CCC2)c1ccccc1; conditions: Homo sapiens; dose 20.0 nM; remark: listed apart in the source
# [9] = system: CN(C(=S)Cn1nc2c(c1C(F)(F)F)CCC2)c1ccccc1; conditions: Homo sapiens; dose 5.0 nM
# Description: Inhibition of human DNA polymerase theta assessed as substrate Vmax using dNTP as substrate at 5 nM
# [10] = system: CN(C(=S)Cn1nc2c(c1C(F)(F)F)CCC2)c1ccccc1; conditions: Homo sapiens; dose 40.0 nM; remark: listed apart in the source
# [11] = system: CN(C(=S)Cn1nc2c(c1C(F)(F)F)CCC2)c1ccccc1; conditions: Homo sapiens; dose 2.5 nM; remark: listed apart in the source
# Description: Inhibition of human DNA polymerase theta assessed as substrate Vmax using dNTP as substrate at 2.5 nM
# [12] = system: CN(C(=S)Cn1nc2c(c1C(F)(F)F)CCC2)c1ccccc1; conditions: Homo sapiens; dose 5.0 nM; remark: listed apart in the source
# Description: Inhibition of human DNA polymerase theta assessed as substrate Km using dNTP as substrate at 5 nM
substance,measurement,setting,value
"DNA polymerase theta (Homo sapiens), O75417",Vmax,[1],25.5 µM/min
same,Vmax,[2],15.2 µM/min
same,Km,[3],39.5 µM
same,Km,[4],25.2 µM
same,Km,[5],57 µM
same,Km,[6],112 µM
same,Km,[7],24 µM
same,Vmax,[8],21.8 µM/min
same,Vmax,[9],51.3 µM/min
same,Vmax,[10],6.45 µM/min
same,Vmax,[11],51.2 µM/min
same,Km,[12],36.6 µM
